Source: US8026218
Bridge positions count the residues as written; N and C are the ends. Square brackets hold non-standard residues; d marks the D form. Primed or numbered codes have the meaning given here. Ends that are not written are not given here. * marks the point of attachment. O‑Bzl(CF3)2 = C-terminal bis(trifluoromethyl)benzyl ester; Glc = O-glucosyl on Ser side chain (Ser(OGlu)/Ser(OGlc)); NH(3,5-(CF3)2-benzyl) = FC(F)(F)c1cc(CN*)cc(C(F)(F)F)c1; OBzl(3,5-(CF3)2) = FC(F)(F)c1cc(CO*)cc(C(F)(F)F)c1; O‑Bzl(CF3)2(3) = C-terminal O-Bzl(CF3)2 ester; NH‑Bn(CF3)2 = C-terminal Bn(CF3)2 amide; OBn(OMe)2 = C-terminal OBn(OMe)2 ester; Dmt = Cc1cc(O)cc(C)c1C[C@H](N)C(=O)O; dPen = CC(C)(S)[C@@H](N)C(=O)O; Pen = CC(C)(S)[C@H](N)C(=O)O; Nle = CCCC[C@H](N)C(=O)O; Abu = CC[C@H](N)C(=O)O; βAla = NCCC(=O)O

Experiments:
[1] = biological target: δ opioid receptor of the mouse isolated vas deferens (mouse), P32300; assay: cell-based or functional assay
Chain of δ opioid receptor of the mouse isolated vas deferens (mouse), P32300 (P32300 whole entry, stated change not applied): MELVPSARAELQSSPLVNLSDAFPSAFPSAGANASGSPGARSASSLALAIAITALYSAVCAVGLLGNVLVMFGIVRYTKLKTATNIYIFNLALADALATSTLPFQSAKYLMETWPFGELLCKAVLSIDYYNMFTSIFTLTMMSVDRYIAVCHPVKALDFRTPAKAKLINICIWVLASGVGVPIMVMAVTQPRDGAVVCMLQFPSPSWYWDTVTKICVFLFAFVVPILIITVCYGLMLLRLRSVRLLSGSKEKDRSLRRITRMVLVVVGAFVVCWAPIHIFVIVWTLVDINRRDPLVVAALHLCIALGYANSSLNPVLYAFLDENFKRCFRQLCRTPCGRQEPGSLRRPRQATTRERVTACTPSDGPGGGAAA

[2] = biological target: guinea pig NK1 receptor (guinea pig) (UniProt P30547); assay: cell-based or functional assay
Chain of guinea pig NK1 receptor (guinea pig) (P30547 whole entry): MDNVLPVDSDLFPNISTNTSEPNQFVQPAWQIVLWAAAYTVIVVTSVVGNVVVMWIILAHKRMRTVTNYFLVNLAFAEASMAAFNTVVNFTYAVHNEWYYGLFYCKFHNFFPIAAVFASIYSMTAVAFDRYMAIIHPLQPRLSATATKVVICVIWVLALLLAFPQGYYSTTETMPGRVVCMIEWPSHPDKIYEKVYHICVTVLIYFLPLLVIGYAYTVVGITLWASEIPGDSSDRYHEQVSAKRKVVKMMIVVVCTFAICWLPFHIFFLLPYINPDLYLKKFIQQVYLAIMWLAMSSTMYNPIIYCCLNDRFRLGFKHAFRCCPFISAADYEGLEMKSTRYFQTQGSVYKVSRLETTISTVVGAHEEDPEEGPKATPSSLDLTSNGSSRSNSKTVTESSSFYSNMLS

[3] = biological target: δ opioid receptor of the mouse isolated vas deferens (mouse) (UniProt P32300); assay: cell-based or functional assay
Chain of δ opioid receptor of the mouse isolated vas deferens (mouse) (P32300 whole entry, stated change not applied): as the sequence (P32300 whole entry, stated change not applied) above

[4] = biological target: µ opioid receptor of the guinea pig isolated ileum (guinea pig) (UniProt P97266); assay: cell-based or functional assay
Chain of µ opioid receptor of the guinea pig isolated ileum (guinea pig) (P97266 whole entry): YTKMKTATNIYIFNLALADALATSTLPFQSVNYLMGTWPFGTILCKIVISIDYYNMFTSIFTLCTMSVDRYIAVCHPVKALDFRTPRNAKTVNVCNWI

[5] = biological target: rat µ opioid receptor (rat) (UniProt P33535); assay: cell-based or functional assay
Chain of rat µ opioid receptor (rat) (P33535 whole entry): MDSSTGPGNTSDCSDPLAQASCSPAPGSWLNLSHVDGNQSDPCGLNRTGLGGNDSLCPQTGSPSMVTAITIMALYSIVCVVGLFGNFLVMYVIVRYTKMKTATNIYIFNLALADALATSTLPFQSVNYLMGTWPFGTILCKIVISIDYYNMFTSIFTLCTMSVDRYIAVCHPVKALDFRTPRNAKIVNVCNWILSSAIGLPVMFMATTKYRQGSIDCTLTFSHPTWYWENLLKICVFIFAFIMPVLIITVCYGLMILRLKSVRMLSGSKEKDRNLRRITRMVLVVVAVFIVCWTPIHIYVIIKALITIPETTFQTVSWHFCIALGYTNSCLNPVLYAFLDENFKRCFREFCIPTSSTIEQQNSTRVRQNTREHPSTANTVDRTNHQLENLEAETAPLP

[6] = biological target: human δ opioid receptor (human) (UniProt P41143); assay: cell-based or functional assay
Chain of human δ opioid receptor (human) (P41143 whole entry, stated change not applied): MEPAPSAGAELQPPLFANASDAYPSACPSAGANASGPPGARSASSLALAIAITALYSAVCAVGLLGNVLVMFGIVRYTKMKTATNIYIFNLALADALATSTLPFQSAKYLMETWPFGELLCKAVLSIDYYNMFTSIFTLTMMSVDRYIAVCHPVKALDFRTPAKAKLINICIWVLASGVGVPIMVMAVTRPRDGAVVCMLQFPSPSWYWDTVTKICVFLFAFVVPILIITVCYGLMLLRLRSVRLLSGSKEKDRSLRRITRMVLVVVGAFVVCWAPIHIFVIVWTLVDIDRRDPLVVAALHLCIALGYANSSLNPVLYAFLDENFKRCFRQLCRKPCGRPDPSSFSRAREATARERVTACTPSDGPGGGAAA

[7] = biological target: human δ opioid receptor (human) (UniProt P41143); assay: radioligand competition vs [3H]DPDPE, membranes of hDOR cells
[8] = biological target: human NK1 receptor (human) (UniProt P25103); assay: radioligand competition vs [3H]substance P, membranes of hNK1 CHO cells
Chain of human NK1 receptor (human) (P25103 whole entry): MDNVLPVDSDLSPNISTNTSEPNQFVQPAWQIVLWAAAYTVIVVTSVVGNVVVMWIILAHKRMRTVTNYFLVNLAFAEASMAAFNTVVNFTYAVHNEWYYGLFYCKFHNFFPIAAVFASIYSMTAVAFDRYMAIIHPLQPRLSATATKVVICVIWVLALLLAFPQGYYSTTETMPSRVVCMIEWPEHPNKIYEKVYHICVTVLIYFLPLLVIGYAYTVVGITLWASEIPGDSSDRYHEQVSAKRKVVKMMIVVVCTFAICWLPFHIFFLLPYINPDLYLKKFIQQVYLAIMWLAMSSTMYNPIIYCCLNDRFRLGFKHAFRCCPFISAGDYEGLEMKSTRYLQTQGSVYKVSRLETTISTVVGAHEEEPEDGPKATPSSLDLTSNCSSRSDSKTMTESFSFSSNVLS

[9] = biological target: rat NK1 receptor (rat) (UniProt P14600); assay: radioligand competition vs [3H]substance P, membranes of rNK1 CHO cells
Chain of rat NK1 receptor (rat) (P14600 whole entry): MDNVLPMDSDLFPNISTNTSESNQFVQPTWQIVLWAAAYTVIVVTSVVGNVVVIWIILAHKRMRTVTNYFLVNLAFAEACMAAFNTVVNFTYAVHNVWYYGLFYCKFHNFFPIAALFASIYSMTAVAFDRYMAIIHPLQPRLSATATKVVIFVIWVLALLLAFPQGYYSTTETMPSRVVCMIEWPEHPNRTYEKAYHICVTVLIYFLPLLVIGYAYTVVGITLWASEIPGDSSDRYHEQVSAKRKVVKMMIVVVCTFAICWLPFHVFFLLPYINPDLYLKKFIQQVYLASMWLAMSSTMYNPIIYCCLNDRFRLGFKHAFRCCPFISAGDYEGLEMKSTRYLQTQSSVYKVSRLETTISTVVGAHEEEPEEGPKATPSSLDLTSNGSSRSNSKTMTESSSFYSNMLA

[10] = biological target: rat µ opioid receptor (rat) (UniProt P33535); assay: radioligand competition vs [3H]DAMGO, membranes of rMOR cells

B1: TyrDAlaGlyPheMet(O)ProLeuTrpOBn(CF3)2 (TY023) (peptide)
peptide: YAGFMPLW
modifications: here or on the partner: D-Ala at 2; Met(O) (oxidized methionine) at 5; C-terminal O-3,5-Bn(CF3)2 ester
Binder B1 has an MVD opioid(delta) agonist IC50 [1] of 33 nM.

B2: Tyr-DAla-Gly-Phe-β-Ala-Trp-O-Bzl(CF3)2 (NP32) (peptide)
peptide: Y[dA]GF[βAla]W-{O‑Bzl(CF3)2(3)}
B2 gave a GPI/LMMP SP antagonist Ke [2] of 250 nM, an MVD δ-agonist IC50 [3] of 12.6 nM and a GPI/LMMP µ-agonist IC50 [4] of 435 nM.

B3: Tyr-DAla-Gly-Phe-Gly-Trp-O-Bzl(CF3)2 (NP30) (peptide)
peptide: Y[dA]GFGW-{O‑Bzl(CF3)2(3)}
B3 showed a GPI/LMMP SP antagonist Ke [2] of 58.9 nM, an MVD δ-agonist IC50 [3] of 20.9 nM and a GPI/LMMP µ-agonist IC50 [4] of 25.7 nM.

B4: Tyr-DAla-Gly-Phe-Leu-Trp-O-Bzl(CF3)2 (NP37) (peptide)
peptide: Y[dA]GFLW-{O‑Bzl(CF3)2}
For B4, the MVD δ-agonist IC50 [3] was 25.7 nM.

B5: DmtDAlaGlyPheNleProSer(OGlu)TrpNHBn(CF3)2 (TY056) (peptide)
peptide: [Dmt][dA]GF[Nle]PS(Glc)W-{NH‑Bn(CF3)2}
With B5 the MVD opioid(delta) agonist IC50 [1] was 3.62 nM.

B6: TyrDAlaGlyPheMetProLeuTrpOBn(OMe)2 (TY030) (peptide)
peptide: Y[dA]GFMPLW-{OBn(OMe)2}
B6 gave an MVD opioid(delta) agonist IC50 [1] of 12 nM.

B7: TyrDAlaGlyPheNleProSer(OGlu)TrpNHBn(CF3)2 (TY041) (peptide)
peptide: Y[dA]GF[Nle]PS(Glc)W-{NH‑Bn(CF3)2}
B7 showed an MVD opioid(delta) agonist IC50 [1] of 12.7 nM.

B8: TyrDAlaGlyPheMetProLeuTrpOH (TY043) (peptide)
peptide: Y[dA]GFMPLW-OH
Work on B8 yielded an MVD opioid(delta) agonist IC50 [1] of 8.18 nM.

B9: Tyr[DCysGlyPheNleProCys]TrpNHBn(CF3)2 (TY035) (peptide)
peptide: Y[dC]GF[Nle]PCW-{NH(3,5-(CF3)2-benzyl)}
modifications: disulfide 2-7
Work on B9 yielded an MVD opioid(delta) agonist IC50 [1] of 84.7 nM.

B10: Tyr[DCysGlyPheNleProDCys]TrpNHBn(CF3)2 (TY038) (peptide)
peptide: Y[dC]GF[Nle]P[dC]W-{NH(3,5-(CF3)2-benzyl)}
modifications: disulfide 2-7
Binder B10 has a GTP binding rMOR EC50 [5] of 21.7 nM, a GTP binding rMOR Emax [5] of 11% and a GTP binding hDOR EC50 [6] of 14 nM. It also gave a GTP binding hDOR Emax [6] of 87%, a Ki [7] of 55.5 nM and a Ki [8] of 0.24 nM. It also gave an MVD opioid(delta) agonist IC50 [1] of 18.9 nM, a Ki [9] of 7.11 nM and a Ki [10] of 156 nM.

B11: Tyr-D-Ala-Gly-Trp-O-3′,5′(CF3)2-Bzl (NP44) (peptide)
peptide: Y[dA]GW-{OBzl(3,5-(CF3)2)}
B11 gave a GPI SP-antagonist Ke [2] of 5 nM and an MVD δ-agonist IC50 [3] of 303 nM.

B12: DmtDAlaGlyPheMetProLeuTrpNHBn(CF3)2 (TY032) (peptide)
peptide: [Dmt][dA]GFMPLW-{NH(3,5-(CF3)2-benzyl)}
With B12 the MVD opioid(delta) agonist IC50 [1] was 1.82 nM.

B13: Tyr[DCysGlyPheCys]ProLeuTrpNHBn(CF3)2 (TY039) (peptide)
peptide: Y[dC]GFCPLW-{NH(3,5-(CF3)2-benzyl)}
modifications: disulfide 2-5
B13 showed an MVD opioid(delta) agonist IC50 [1] of 73.1 nM.

B14: TyrDAlaGlyPheDPheProLeuTrpOBn(CF3)2 (TY007) (peptide)
peptide: Y[dA]GF[dF]PLW-{OBzl(3,5-(CF3)2)}
For B14, the MVD opioid(delta) agonist IC50 [1] was 412 nM.

B15: Tyr[DPenGlyPheNleProPen]TrpNHBn(CF3)2 (TY047) (peptide)
peptide: Y[dPen]GF[Nle]P[Pen]W-{NH‑Bn(CF3)2}
modifications: disulfide 2-7
For B15, the GTP binding rMOR EC50 [5] was 2910 nM, the GTP binding rMOR Emax [5] was 15% and the Ki [7] was 152 nM. It also gave a Ki [8] of 59 nM, a Ki [9] of 163 nM and a Ki [10] of 1970 nM.

B16: TyrDAlaGlyPheMetProLeuTrpNHBn(CF3)2 (TY027) (peptide)
peptide: Y[dA]GFMPLW-{NH(3,5-(CF3)2-benzyl)}
B16 showed an MVD opioid(delta) agonist IC50 [1] of 14.5 nM.

B17: DmtDAlaGlyPheMetProLeuTrpOBn(CF3)2 (TY033) (peptide)
peptide: [Dmt][dA]GFMPLW-{OBzl(3,5-(CF3)2)}
With B17 the MVD opioid(delta) agonist IC50 [1] was 1.27 nM.

B18: Tyr-DAla-Gly-Phe-D-Ala-Trp-O-Bzl(CF3)2 (NP40) (peptide)
peptide: Y[dA]GF[dA]W-{O‑Bzl(CF3)2(3)}
B18 showed a GPI/LMMP SP antagonist Ke [2] of 608 nM, an MVD δ-agonist IC50 [3] of 58 nM and a GPI/LMMP µ-agonist IC50 [4] of 528 nM.

B19: Tyr-DAla-Gly-Phe-Pro-Trp-O-Bzl(CF3)2 (NP39) (peptide)
peptide: Y[dA]GFPW-{O‑Bzl(CF3)2}
B19 gave a GPI/LMMP SP antagonist Ke [2] of 1.8 nM and an MVD δ-agonist IC50 [3] of 84.6 nM.

B20: TyrDAlaGlyPheNleProLeuTrpNHBn(CF3)2 (TY045) (peptide)
peptide: YAGFXPLW
modifications: here or on the partner: D-Ala at 2; Nle at 5 (X); C-terminal NH-Bn(CF3)2 amide
In the case of B20, the MVD opioid(delta) agonist IC50 [1] is reported as 13.6 nM.

B21: Tyr-DAla-Gly-Phe-α-Abu-Trp-O-Bzl(CF3)2 (NP33) (peptide)
peptide: Y[dA]GF[Abu]W-{O‑Bzl(CF3)2(3)}
B21 was tested, and the GPI/LMMP SP antagonist Ke [2] was 5.6 nM, the MVD δ-agonist IC50 [3] was 12.4 nM and the GPI/LMMP µ-agonist IC50 [4] was 600 nM.

B22: H-Tyr-D-Ala-Gly-Phe-Leu-Pro-Leu-Trp-O-3,5-Bzl(CF3)2 (peptide)
peptide: H-Y[dA]GFLPLW-{OBzl(3,5-(CF3)2)}
modifications: also: TFA salt
Binder B22 has an MVD (δ) opioid agonist IC50 [1] of 101 nM.

B23: Tyr[DPenGlyPheNleProDPen]TrpNHBn(CF3)2 (TY048) (peptide)
peptide: Y[dPen]GF[Nle]P[dPen]W-{NH‑Bn(CF3)2}
modifications: disulfide 2-7
In the case of B23, the GTP binding rMOR EC50 [5] is reported as 135 nM, the GTP binding rMOR Emax [5] is reported as 29% and the Ki [8] is reported as 1.9 nM. It also gave a Ki [9] of 26 nM and a Ki [10] of 998 nM.
